Measured values from article PMC11633198, “Vibrio cholerae CsrA controls ToxR levels by increasing the stability and translation of toxR mRNA”.
Changes are numbered by the printed parent chain.

What was measured:
CsrA [1] = target: T1, CsrA (Vibrio cholerae, UniProt Q9KUH3 1-65); experiment: EMSA; 1 nM RNA; details: protein: recombinant; tags: N-terminal 6xHis removed by TEV protease; chain copies: 2; label: 5' biotin; partly folded, stem-loops predicted by mfold
CsrA [2] = target: T1, CsrA; experiment: EMSA; 1 nM RNA, 640 nM CsrA; also no binding when mixed with CsrB-right; details: protein: recombinant; tags: N-terminal 6xHis removed by TEV protease; chain copies: 2; label: 3' biotin; hairpin (mfold)
CsrA [3] = target: T1, CsrA; experiment: EMSA; 1 nM RNA, 640 nM CsrA; also no binding when mixed with CsrB-left; details: protein: recombinant; tags: N-terminal 6xHis removed by TEV protease; chain copies: 2; label: 3' biotin; hairpin (mfold)
CsrA [4] = target: T1, CsrA; experiment: EMSA; 0.1 nM RNA, 0-640 nM CsrA (Fig 3B); 1 nM RNA in Fig 3C; details: protein: recombinant; tags: N-terminal 6xHis removed by TEV protease; chain copies: 2; label: 3' biotin; two adjacent hairpins (mfold)
CsrA [5] = target: T1, CsrA; experiment: EMSA; 1 nM RNA, 640 nM CsrA; details: protein: recombinant; tags: N-terminal 6xHis removed by TEV protease; chain copies: 2; label: 3' biotin; two adjacent hairpins (mfold)

T1 sequence (Q9KUH3 whole entry): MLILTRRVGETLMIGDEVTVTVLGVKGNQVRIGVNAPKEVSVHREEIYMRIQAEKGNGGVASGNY

B1: toxR 5'UTR (ssRNA)
RNA: GCAUUUUUAUCAAAGAAGAUAAAAAAACCAGUAAAGUCUGAGUGUUGGGACAGGGAGAUACUGGGACAUUAGAUGUUCGGAUUAGGACACAACUCAAAAGAGAUAUCGAUG
- binding result (CsrA [1]): binds

B2: CsrB-left (structured_RNA)
RNA: UUAGAUGCAGGGAGCACCUUU
- binding result (CsrA [2]): no binding

B3: CsrB-right (structured_RNA)
RNA: UUUUAGUAGCUGGAAUGCUGCGA
- binding result (CsrA [3]): no binding

B4: CsrB oligo (structured_RNA)
RNA: UUAGAUGCAGGGAGCACCUUUUAGUAGCUGGAAUGCUGCGA
- binding result (CsrA [4]): binds

B5: CsrB-mut (oligo-mut) (structured_RNA)
RNA: B4 RNA with G10U, G11A, G12U, G30A, G31U
- binding result (CsrA [5]): no binding

B6: mut-left (structured_RNA)
RNA: B4 RNA with G10U, G11A, G12U
- binding result (CsrA [5]): no binding
